Data on 1 substance can be found in article PMC11022532.

This assay has as its target CslA-His12 (cellulose synthase-like protein CslA from Streptomyces lividans, full length, C-terminal 12-histidine tag) (Streptomyces lividans).

For the substance “Flag-tagged GlxA^12-261 (truncated GlxA lacking Region-2 and Domain 3) (domain or fragment)”, the activity (UDP release) of the CslA–GlxA^12-261 complex against the wild-type CslA–GlxA complex was 40%.
